Values belong to the molecule of their own block, whether it stands above or below them.
Legend:
[1] = target: T1, MBP-NtKRP-Motor (Nicotiana tabacum, UniProt A0A0D3QSP8); experiment: microtubule co-sedimentation, SDS-PAGE; assay type: binding; settings: taxol-stabilised microtubules, PEM buffer with 1 mM MgCl2, pH 6.8; nucleotide 5 µM
T1 construct: gene KRP; MBP-tagged motor domain, purified; motor 1-556 elsewhere
T1 sequence (A0A0D3QSP8 55-470 limits assumed): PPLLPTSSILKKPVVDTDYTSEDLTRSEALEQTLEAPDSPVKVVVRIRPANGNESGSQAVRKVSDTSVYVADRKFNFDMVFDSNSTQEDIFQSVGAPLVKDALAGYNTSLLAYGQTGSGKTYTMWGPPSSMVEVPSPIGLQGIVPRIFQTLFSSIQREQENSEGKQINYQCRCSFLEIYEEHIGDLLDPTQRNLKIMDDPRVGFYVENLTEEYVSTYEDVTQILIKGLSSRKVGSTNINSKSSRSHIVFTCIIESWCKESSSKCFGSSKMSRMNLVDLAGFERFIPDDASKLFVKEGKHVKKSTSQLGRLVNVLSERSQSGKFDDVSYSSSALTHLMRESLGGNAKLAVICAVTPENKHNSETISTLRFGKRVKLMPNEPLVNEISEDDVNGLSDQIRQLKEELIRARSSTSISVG

[2] = target: microtubules (polymerized tubulin, taxol-stabilised); experiment: co-sedimentation; 100 uL with 25 ug taxol-stabilised MTs and 50 ug NtKRP-motor in PEM buffer pH 6.8; without nucleotide, with ATP or with AMPPNP; room temperature 30 min, 25,000 x g 20 min at 25 C; SDS-PAGE of supernatant and pellet, Coomassie
[3] = target: microtubules (polymerized tubulin, taxol-stabilised)
[4] = substrate: Nc1ncnc2c1ncn2[C@@H]1O[C@H](COP(=O)(O)OP(=O)(O)OP(=O)(O)O)[C@@H](O)[C@H]1O; experiment: isothermal titration calorimetry ATPase assay; assay type: biochemical, Nicotiana tabacum; settings: microtubules 4.4 µM (Methods print 1.67 µM MTs), 10 µM taxol, BRB80 with 1 mM MgCl2, 50 mM NaCl, pH 6.8, 25 °C

Molecule: Nc1ncnc2c1ncn2[C@@H]1O[C@H](COP(=O)(O)OP(=O)(O)NP(=O)(O)O)[C@@H](O)[C@H]1O [AMPPNP]
microtubule co-sedimentation, SDS-PAGE [1]: nonhydrolyzable ATP analog AMPPNP was used in place of ATP, most of the fusion protein

Molecule: Nc1ncnc2c1ncn2[C@@H]1O[C@H](COP(=O)(O)OP(=O)(O)OP(=O)(O)O)[C@@H](O)[C@H]1O [ATP]
microtubule co-sedimentation, SDS-PAGE [1]: The addition of ATP significantly reduced the amount of the fusion protein co-sediment

percent coprecipitated with MTs (absence of ATP) [2]: 50%
Molecule: MBP-NtKRP motor domain fusion protein (domain or fragment)

K0.5,MT of the MT-stimulated ATPase activity of the motor domain (coupled enzyme assay, 1 mM ATP, 0-5 uM MTs) [3]: 22 µM
Molecule: recombinant NtKRP motor domain (amino acids 1–556) (domain or fragment)

B1: NtKRP motor domain (recombinant motor protein, amino acids 1–556) (Nicotiana tabacum) (protein)
chain: MSENRFLGNISASSIRNLLPKSVSTKKKLNSSRFKHKMNSENVAPIDPNIQITDPPLLPTSSILKKPVVDTDYTSEDLTRSEALEQTLEAPDSPVKVVVRIRPANGNESGSQAVRKVSDTSVYVADRKFNFDMVFDSNSTQEDIFQSVGAPLVKDALAGYNTSLLAYGQTGSGKTYTMWGPPSSMVEVPSPIGLQGIVPRIFQTLFSSIQREQENSEGKQINYQCRCSFLEIYEEHIGDLLDPTQRNLKIMDDPRVGFYVENLTEEYVSTYEDVTQILIKGLSSRKVGSTNINSKSSRSHIVFTCIIESWCKESSSKCFGSSKMSRMNLVDLAGFERFIPDDASKLFVKEGKHVKKSTSQLGRLVNVLSERSQSGKFDDVSYSSSALTHLMRESLGGNAKLAVICAVTPENKHNSETISTLRFGKRVKLMPNEPLVNEISEDDVNGLSDQIRQLKEELIRARSSTSISVGSNGYFRGPNVRESLNQLRVSLNRSLILPSIDNDREEEIHINEDDIKELQLQIDNLRGSHGDNSKETLEKKDSLKYSSGESEHYLSC
notes: N-terminal motor domain fragment, residues 1-556 of 1194 (full length 134 kDa); recombinant
Km [4]: 2.4 µM
kcat [4]: 80.3 s⁻¹
